Laboratory results: patent publication US20150352207A1, “USE OF ANTIBODIES AGAINST ICAM-1 IN COMBINATION WITH AN ANTI CANCER DRUG IN THE TREATMENT OF PATIENTS” (BIOINVENT INTERNATIONAL AB, priority 2013, published 2015)
Where two headings read alike, the source gives them in different places.

Legend:
[1] = tested on: Daudi cells; experiment: Subcutaneous scid/Daudi non-Hodgkin lymphoma xenograft; type: in vivo, scid mice; conditions: twice weekly i.p. from day 1
[2] = tested on: EJM myeloma cells; experiment: Subcutaneous scid myeloma xenograft, EJM; type: in vivo, scid mice; conditions: 2 mg/kg twice weekly
Description: (§1) Antibody treatment with 2 mg/kg B11 or control IgG1 was started at Day 1 and was continued on a twice-weekly intraperitoneal dosing regimen. Mice were sacrificed when tumor sizes reached the ethical limit.

[3] = tested on: NCI-H929 myeloma cells; experiment: Subcutaneous scid myeloma xenograft, NCI-H929; type: in vivo, scid mice; conditions: 2 mg/kg twice weekly
Description: as §1

[4] = molecular target: T1, mouse FcγRIV (Mus musculus, UniProt A0A0B4J1G0); experiment: B11 isotype variant binding to FcγR (Biacore), mouse FcγRIV
T1 construct: made in house; host or cells: HEK293E (transient, adherent)
T1 sequence (A0A0B4J1G0 21-249): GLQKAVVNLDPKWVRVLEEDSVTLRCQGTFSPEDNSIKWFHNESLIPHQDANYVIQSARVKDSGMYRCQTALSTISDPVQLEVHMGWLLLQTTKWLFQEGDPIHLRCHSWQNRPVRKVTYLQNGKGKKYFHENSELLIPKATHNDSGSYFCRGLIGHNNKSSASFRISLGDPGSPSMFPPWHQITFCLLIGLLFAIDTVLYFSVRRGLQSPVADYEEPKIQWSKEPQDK
Description: His-tagged human FcγRIIIa or mouse FcγRIV were expressed transient in adherent HEK293E cells, purified using Ni-NTA chromatography and characterized using SDS-PAGE and/or Biacore. Surface plasmon resonance (SPR) measurements were performed using a Biacore 3000 instrument. Goat α-human-F(ab)′2 F(ab)′2 fragment (Jackson laboratories) was immobilised with a CM-5 chip using a standard amine coupling protocol. IgG1 B11, IgG4 B11, or 297Q B11 were diluted to 15 and 60 μg/mL respectively and added to the surface at […] for 3 min. His tagged human FcγRIIIa or mouse FcγRIV were pre-incubated with an α-HIS antibody (R&D Systems) at a 2:1 molar ratio before addition to the chip surface, 30 μL/min, 1 min. After each cycle the surface was regenerated twice with glycine buffer pH 1.7.

[5] = tested on: peripheral blood B cells; experiment: PCD in normal peripheral blood B cells; type: cell-based; conditions: resting or activated peripheral blood B cells
Description: Target cells were seeded in 96-well culture plates at a density of 2×10^6 cells/mL culture medium. Titrated concentrations of IgG1 B11 or different negative and positive control antibodies were added to the cells, in the absence or presence of anti-human Fab fragment (Jackson ImmunoResearch) for cross-linking. The cells were then incubated for 16 hours at 37° C. in a humidified atmosphere of 5% CO2. The cells were harvested and stained for Annexin V-488/Propidium Iodide (Invitrogen, Sweden) and analysed using flow cytometer (FACS Calibur, BD Bioscience).

[6] = tested on: ARH-77 xenograft tissues; conditions: compared to control IgG, untreated and rituximab-treated mice
Description: (A) ARH-77 cells were injected subcutaneously into the left flank of SCID mice (n=8 per group). Mice were treated with the different B11 isotypes twice weekly. […] Statistical significance was calculated relative to control antibody treatment using Kruskal-Wallis Test (Nonparametric ANOVA) with Dunn's Multiple Comparisons Test. Statistical significance was considered for *p<0.05, **p<0.01, and ***p<0.001.

B1: IgG B11: novel human ICAM-1 antibody targeting the B11 epitope, isolated from the naïve antibody library n-CoDeR (antibody, V domains shown)
VH: EVQLLESGGGLVQPGGSLRLSCAASGFTFSNAWMSWVRQAPGKGLEWVAFIWYDGSNKYYADSVKGRFTISRDNSKNTLYLQMNSLRAEDTAVYYCARYSGWYFDYWGQGTLVTVSS
VL: QSVLTQPPSASGTPGQRVTISCTGSSSNIGAGYDVHWYQQLPGTAPKLLIYDNNNRPSGVPDRFSGSKSGTSASLAISGLRSEDEADYYCQSYDSSLSAWLFGGGTKLTVLG
modifications: B11 antibody variable H region; B11 antibody variable L region
survival of tumor bearing mice [1]: prolonged survival of tumor bearing mice
tumor growth [1]: significantly and equally efficaciously compared to rituximab, prevented tumor growth
reduction of myeloma tumor growth [2]: 98%
reduction of myeloma tumor growth [3]: 99%
binding to murine FcγRIV [4]: strong binding
programmed cell death of normal B cells [5]: did not, however, induce PCD
programmed cell death of normal B cells ([5]; listed as B11): not significantly affected
F4/80 positive host effector cell (macrophage) infiltration of tumor tissue [6]: massive influx
F4/80 positive host effector cell (macrophage) infiltration of tumor tissue ([6]; listed as B11): significantly increased
